The source of these data is US20050042720A1, “Novel promiscuous G alpha protein mutants and their use” (7TM Pharma A/S, priority 2003, published 2005).

The target of this assay is Gq-coupled receptors. The experiment in a line: cell-based or functional assay.

B1: GαqG66D, P21279 1-359 (protein)
chain: MTLESIMACCLSEEAKEARRINDEIERHVRRDKRDARRELKLLLLGTGESGKSTFIKQMRIIHGSDYSDEDKRGFTKLVYQNIFTAMQAMIRAMDTLKIPYKYEHNKAHAQLVREVDVEKVSAFENPYVDAIKSLWNDPGIQECYDRRREYQLSDSTKYYLNDLDRVADPSYLPTQQDVLRVRVPTTGIIEYPFDLQSVIFRMVDVGGQRSERRKWIHCFENVTSIMFLVALSEYDQVLVESDNENRMEESKALFRTIITYPWFQNSSVILFLNKKDLLEEKIMYSHLVDYFPEYDGPQRDAQAAREFILKMFVDLNPDSDKIIYSHFTCATDTENIRFVFAAVKDTILQLNLKEYNLV
modifications: not fully specified
The molecule B1 registered a decrease in IP1 accumulation of 20%.
